Patent US20080161234A1, “Composition Comprising Lactic Acid and Lactoferrin” (priority 2004, published 2008)

Experiments:
Type in all cases: cell-based
[1] = system: S. aureus 1800 (CCUG 1800); experiment: Microbicidal microplate-droplet assay, S. aureus; parameters: key to S. aureus killing, growth grade in droplet assay: +++ = the number of colony forming units contained within 5 ul of a droplet formed a smooth layer of bacteria.; (+++): (parenthesis = a tendency towards a ruffled area compared with the control).; 0 = no bacteria in triplicate samples of 5 ul (>99.95 killed of the inoculum)
Experimental: (§1) The bacterial strains S. aureus 1800 (CCUG 1800), E. coli 06, and the yeast C. albicans (ATCC 64549) have been used in the microplate assay. All microorganisms were cultured in brain heart infusion medium (BHI) on a shaker over night at 37° C. A volume of the culture was transferred to a new tube with BHI and incubated for two more h on the shaker. The bacteria were harvested in the log phase, washed once and thereafter suspended in the broth used for the microplate assay. The suspension was adjusted spectrophotometrically and diluted to a concentration of approximately 4×10^6 cells per ml at 650 nm. Washed cells were suspended in 0.2% BP (pH 7.0) or BHI medium diluted 1/10 (0.34%, pH 6.7-6.9) (Difco, USA). The concentration of bacterial or fungal cells was spectrophotometrically adjusted. LF or peptide, serially diluted in BHIdil or BP by twofold steps (unless otherwise stated), were added in triplicate to the wells of a microtiterplate (200 ul per well). The bacterial or yeast cell solutions were added in 10 ul volumes to give a final concentration of approximately 2×10^5 cells per ml. The concentration of the stock solution was always checked by viable counts. The microplate was incubated at 37° C. in a humid chamber for 2 h unless otherwise stated. Five ul were taken from each well and added as a drop onto a blood agar plate and incubated over night at 37° C. In some experiments more thorough viable counts were performed and the killing was expressed as remaining colony forming units in relation to the inoculum. The lower limit for detection of microorganisms was 200 CFU/ml. The antimicrobial activity of human LF was analysed by the microbicidal assay described above. Different microbes such as C. albicans, E. coli and S. aureus were analysed with respect to their survival in lactate (not containing the inert gel base, which makes the gel unsuitable for the microbicidal assay) containing LF.

G. vaginalis = experiment: Minimal bactericidal concentration (MBC99) of LF on G. vaginalis strains; conditions: concentration at which 99% killing was obtained, fivefold serial steps
Experimental: (§2) G. vaginalis and P. bivia were cultured on chocolate-GL-plates for 48 h in anaerobic milieu. The bacteria were harvested and suspended in BHI for further incubation (4 hours at 37° C.). The bacteria were washed twice in Bactopeptone (BP, 0.2%). The concentration was adjusted spectrophotometrically and diluted to 1×10^7 bacteria per ml.
(§3) The procedure for the microbicidal assay with regard to G. vaginalis and P. bivia was as described above except that the microplate was incubated under anaerobic conditions (2 h). Thereafter droplets of the solutions were analyzed for viable bacteria on blood agar plates after 48 h of anaerobic incubation at 37° C.
Instead of 0.2% BP 0.34% BHI was used. […] The plate was incubated for 20 hours.

G. vaginalis (Gv 14) = experiment: Growth inhibition of G. vaginalis by LF, spectrophotometric, 20 h anaerobic; conditions: LF in various concentrations, no lactate, 0.34% BHI
Experimental: The bacteria were incubated in 0.34% BHI under anaerobic conditions for 20 hours.
as §2, §3
The microbicidal assay was modified in order to obtain survival conditions for G. vaginalis and P. bivia. Instead of 0.2% BP 0.34% BHI was used. The bacterial strains were analyzed with only LF added in various concentrations to the wells (no lactate present). The plate was incubated for 20 hours.

C. albicans (ATCC 64549) = experiment: Microbicidal microplate assay (viable counts), C. albicans
Experimental: as §1, with “LF. […] LF was incubated together with various concentrations of lactate diluted in 0.2% bactopeptone and C. albicans for 2 h. Thereafter each solution was analysed for viable counts.” for “LF.”

[2] = without lactate, 0.25 and 0.125 mg/ml, 2 h of incubation

B1: LF: LF from human milk purchased from Sigma; single chain iron-binding glycoprotein (protein, UniProt P02788 20-710, looked up)
Lactotransferrin: GRRRSVQWCAVSQPEATKCFQWQRNMRKVRGPPVSCIKRDSPIQCIQAIAENRADAVTLDGGFIYEAGLAPYKLRPVAAEVYGTERQPRTHYYAVAVVKKGGSFQLNELQGLKSCHTGLRRTAGWNVPIGTLRPFLNWTGPPEPIEAAVARFFSASCVPGADKGQFPNLCRLCAGTGENKCAFSSQEPYFSYSGAFKCLRDGAGDVAFIRESTVFEDLSDEAERDEYELLCPDNTRKPVDKFKDCHLARVPSHAVVARSVNGKEDAIWNLLRQAQEKFGKDKSPKFQLFGSPSGQKDLLFKDSAIGFSRVPPRIDSGLYLGSGYFTAIQNLRKSEEEVAARRARVVWCAVGEQELRKCNQWSGLSEGSVTCSSASTTEDCIALVLKGEADAMSLDGGYVYTAGKCGLVPVLAENYKSQQSSDPDPNCVDRPVEGYLAVAVVRRSDTSLTWNSVKGKKSCHTAVDRTAGWNIPMGLLFNQTGSCKFDEYFSQSCAPGSDPRSNLCALCIGDEQGENKCVPNSNERYYGYTGAFRCLAENAGDVAFVKDVTVLQNTDGNNNEAWAKDLKLADFALLCLDGKRKPVTEARSCHLAMAPNHAVVSRMDKVERLKQVLLHQQAKFGRNGSDCPDKFCLFQSETKNLLFNDNTECLARLHGKTTYEKYLGPQYVAGITNLKKCSTSPLLEACEFLRK
- S. aureus killing, percentage of bacteria remaining in relation to the inoculum ([1]; HLF 500 ug/ml, lactate 0.2%, 2 h incubation): 0 (0 = no bacteria in triplicate samples of 5 ul (>99.95 killed of the inoculum).)
- S. aureus killing, percentage of bacteria remaining in relation to the inoculum ([1]; HLF 500 ug/ml, lactate 0.2%, 5 h incubation): 0 (0 = no bacteria in triplicate samples of 5 ul (>99.95 killed of the inoculum).)
- S. aureus killing, percentage of bacteria remaining in relation to the inoculum ([1]; HLF 500 ug/ml, lactate 1%, 2 h incubation): 0 (0 = no bacteria in triplicate samples of 5 ul (>99.95 killed of the inoculum).)
- S. aureus killing, percentage of bacteria remaining in relation to the inoculum ([1]; HLF 500 ug/ml, lactate 1%, 5 h incubation): 0 (0 = no bacteria in triplicate samples of 5 ul (>99.95 killed of the inoculum).)
- S. aureus killing, percentage of bacteria remaining in relation to the inoculum ([1]; HLF 500 ug/ml, lactate 5%, 2 h incubation): 0 (0 = no bacteria in triplicate samples of 5 ul (>99.95 killed of the inoculum).)
- S. aureus killing, percentage of bacteria remaining in relation to the inoculum ([1]; HLF 500 ug/ml, lactate 5%, 5 h incubation): 0 (0 = no bacteria in triplicate samples of 5 ul (>99.95 killed of the inoculum).)
- S. aureus killing, growth grade in droplet assay ([1]; HLF 500 ug/ml, no lactal, 2 h incubation): (+++)
- S. aureus killing, percentage of bacteria remaining in relation to the inoculum ([1]; HLF 500 ug/ml, no lactal, 5 h incubation): 0.3%
- microbicidal activity against S. aureus, LF compared with rHLF [1, 2]: somewhat more active
- MBC99 (G. vaginalis; G. vaginalis strain code 12): 500 µg/mL
- MBC99 (G. vaginalis; G. vaginalis strain code 17): >2500 µg/mL
- MBC99 (G. vaginalis; G. vaginalis strain code 23): 1000 µg/mL
- MBC99 (G. vaginalis; G. vaginalis strain code 51): 100 µg/mL
- MBC99 (G. vaginalis; G. vaginalis strain code 90): 4 µg/mL
- MBC99 (G. vaginalis; G. vaginalis strain code 96): 100 to 500 µg/mL
- growth inhibition of G. vaginalis (G. vaginalis (Gv 14)): Growth inhibition
- inoculate killed (C. albicans (ATCC 64549); LF 2 mg/ml in lactate 1%, 2 h): 92%
- inoculate killed (C. albicans (ATCC 64549); LF 5 mg/ml in lactate 1%, 2 h): 98.2%
- reduction of yeast cells (C. albicans (ATCC 64549); LF in lactate concentrations 0.2%, 0.04% and 0%, 0.2% bactopeptone, 2 h): 99.9%
- effect of LF on antimicrobial effect of lactate against C. albicans (C. albicans (ATCC 64549); lactate diluted fivefold or more (≦1%), all LF concentrations except 0.5 mg at 1% lactate): enhanced the antimicrobial effect of lactate
- microbicidal activity against C. albicans, LF compared with rHLF (C. albicans (ATCC 64549); [2]): somewhat more active
